In publication PMC5034068:

Tests used:
[1] = biological target: TRF2 (endogenous in HeLa cells) (human (endogenous in HeLa)) (UniProt Q15554); experiment: proximity ligation; Duolink in situ PLA in fixed HeLa cells with anti-TRF2 and anti-histone H3 antibodies; cells scored for 10 or more signals in nuclei
[2] = biological target: FKBP fused to the N terminus of TRF2 ΔB (FKBP-TRF2 ΔB), Myc-tagged

Chain of UniProt Q15554 (Q15554 whole entry, the tested form may be a part): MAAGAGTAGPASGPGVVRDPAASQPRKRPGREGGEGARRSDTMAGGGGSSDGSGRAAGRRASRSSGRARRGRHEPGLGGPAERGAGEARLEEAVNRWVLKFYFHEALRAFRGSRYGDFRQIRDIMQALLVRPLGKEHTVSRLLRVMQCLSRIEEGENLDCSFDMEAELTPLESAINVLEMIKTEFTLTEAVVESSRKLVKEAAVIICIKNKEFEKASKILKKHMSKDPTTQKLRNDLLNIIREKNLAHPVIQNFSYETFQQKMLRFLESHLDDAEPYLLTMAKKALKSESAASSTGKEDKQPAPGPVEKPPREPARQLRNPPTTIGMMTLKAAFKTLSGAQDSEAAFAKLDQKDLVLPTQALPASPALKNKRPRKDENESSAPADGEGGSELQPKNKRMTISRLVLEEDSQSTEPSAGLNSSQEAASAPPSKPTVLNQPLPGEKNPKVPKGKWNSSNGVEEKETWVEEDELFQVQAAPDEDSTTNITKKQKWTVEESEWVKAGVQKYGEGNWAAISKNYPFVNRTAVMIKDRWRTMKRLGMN

Row | percent of cells with more than 10 positive Duolink signals [1] | generation of t-circles in FKBP-TRF2 ΔB-complemented MEFs expressing H2B-FRB, with A/C dimerizer for 48 h [2] | Substance
1 | 26 % of cells | – | histone H3 (HeLa cells) (from UniProt P68431 1-136) (natural protein)
2 | – | 50% | FRB fused to the C terminus of histone H2B (H2B-FRB), HA-tagged
